Experimental data reported in paper PMC5389562.

Legend:
[1] = target: T1, mCherry-U2AF35, Q01081; assay: single-molecule photobleaching step counting (TIRF microscopy); nuclear extract in splicing conditions, no exogenous pre-mRNA, ATP depleted (−ATP), in the presence of ribonuclease; diluted and applied to cover slips; labeled protein spots bleaching in one or two steps; details: remark: other sources report otherwise
T1 chain: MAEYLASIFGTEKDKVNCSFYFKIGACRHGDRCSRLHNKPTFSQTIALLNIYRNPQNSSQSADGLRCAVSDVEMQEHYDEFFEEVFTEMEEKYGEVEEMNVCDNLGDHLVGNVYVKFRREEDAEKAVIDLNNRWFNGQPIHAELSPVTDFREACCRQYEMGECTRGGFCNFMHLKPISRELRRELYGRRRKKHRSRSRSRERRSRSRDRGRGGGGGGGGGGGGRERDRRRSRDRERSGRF

[2] = target: T1, mCherry-U2AF35, Q01081; assay: single-molecule photobleaching step counting (TIRF microscopy); nuclear extract in splicing conditions, no exogenous pre-mRNA, with ATP (+ATP), in the presence of ribonuclease; diluted and applied to cover slips; labeled protein spots bleaching in one or two steps; details: remark: other sources report otherwise

molecules bleaching in 1 step (of 2 versus 1 steps), −ATP [1]: 189 molecules | molecules bleaching in 2 steps (of 2 versus 1 steps), −ATP [1]: 33 molecules | molecules bleaching in 1 step (of 2 versus 1 steps), +ATP [2]: 218 molecules | molecules bleaching in 2 steps (of 2 versus 1 steps), +ATP [2]: 21 molecules
B1: mCherry-U2AF35, Q01081 1-240 (natural protein)
chain: T1 chain
